In PMC3401526:

Key:
[1] = target: Cav3.2 T-type calcium channel α 1H subunit (UniProt O95180)
[2] = target: Cav3.2 T-type calcium channel α 1H subunit (UniProt O95180); remark: listed apart in the source

Chain of UniProt O95180 (O95180 whole entry): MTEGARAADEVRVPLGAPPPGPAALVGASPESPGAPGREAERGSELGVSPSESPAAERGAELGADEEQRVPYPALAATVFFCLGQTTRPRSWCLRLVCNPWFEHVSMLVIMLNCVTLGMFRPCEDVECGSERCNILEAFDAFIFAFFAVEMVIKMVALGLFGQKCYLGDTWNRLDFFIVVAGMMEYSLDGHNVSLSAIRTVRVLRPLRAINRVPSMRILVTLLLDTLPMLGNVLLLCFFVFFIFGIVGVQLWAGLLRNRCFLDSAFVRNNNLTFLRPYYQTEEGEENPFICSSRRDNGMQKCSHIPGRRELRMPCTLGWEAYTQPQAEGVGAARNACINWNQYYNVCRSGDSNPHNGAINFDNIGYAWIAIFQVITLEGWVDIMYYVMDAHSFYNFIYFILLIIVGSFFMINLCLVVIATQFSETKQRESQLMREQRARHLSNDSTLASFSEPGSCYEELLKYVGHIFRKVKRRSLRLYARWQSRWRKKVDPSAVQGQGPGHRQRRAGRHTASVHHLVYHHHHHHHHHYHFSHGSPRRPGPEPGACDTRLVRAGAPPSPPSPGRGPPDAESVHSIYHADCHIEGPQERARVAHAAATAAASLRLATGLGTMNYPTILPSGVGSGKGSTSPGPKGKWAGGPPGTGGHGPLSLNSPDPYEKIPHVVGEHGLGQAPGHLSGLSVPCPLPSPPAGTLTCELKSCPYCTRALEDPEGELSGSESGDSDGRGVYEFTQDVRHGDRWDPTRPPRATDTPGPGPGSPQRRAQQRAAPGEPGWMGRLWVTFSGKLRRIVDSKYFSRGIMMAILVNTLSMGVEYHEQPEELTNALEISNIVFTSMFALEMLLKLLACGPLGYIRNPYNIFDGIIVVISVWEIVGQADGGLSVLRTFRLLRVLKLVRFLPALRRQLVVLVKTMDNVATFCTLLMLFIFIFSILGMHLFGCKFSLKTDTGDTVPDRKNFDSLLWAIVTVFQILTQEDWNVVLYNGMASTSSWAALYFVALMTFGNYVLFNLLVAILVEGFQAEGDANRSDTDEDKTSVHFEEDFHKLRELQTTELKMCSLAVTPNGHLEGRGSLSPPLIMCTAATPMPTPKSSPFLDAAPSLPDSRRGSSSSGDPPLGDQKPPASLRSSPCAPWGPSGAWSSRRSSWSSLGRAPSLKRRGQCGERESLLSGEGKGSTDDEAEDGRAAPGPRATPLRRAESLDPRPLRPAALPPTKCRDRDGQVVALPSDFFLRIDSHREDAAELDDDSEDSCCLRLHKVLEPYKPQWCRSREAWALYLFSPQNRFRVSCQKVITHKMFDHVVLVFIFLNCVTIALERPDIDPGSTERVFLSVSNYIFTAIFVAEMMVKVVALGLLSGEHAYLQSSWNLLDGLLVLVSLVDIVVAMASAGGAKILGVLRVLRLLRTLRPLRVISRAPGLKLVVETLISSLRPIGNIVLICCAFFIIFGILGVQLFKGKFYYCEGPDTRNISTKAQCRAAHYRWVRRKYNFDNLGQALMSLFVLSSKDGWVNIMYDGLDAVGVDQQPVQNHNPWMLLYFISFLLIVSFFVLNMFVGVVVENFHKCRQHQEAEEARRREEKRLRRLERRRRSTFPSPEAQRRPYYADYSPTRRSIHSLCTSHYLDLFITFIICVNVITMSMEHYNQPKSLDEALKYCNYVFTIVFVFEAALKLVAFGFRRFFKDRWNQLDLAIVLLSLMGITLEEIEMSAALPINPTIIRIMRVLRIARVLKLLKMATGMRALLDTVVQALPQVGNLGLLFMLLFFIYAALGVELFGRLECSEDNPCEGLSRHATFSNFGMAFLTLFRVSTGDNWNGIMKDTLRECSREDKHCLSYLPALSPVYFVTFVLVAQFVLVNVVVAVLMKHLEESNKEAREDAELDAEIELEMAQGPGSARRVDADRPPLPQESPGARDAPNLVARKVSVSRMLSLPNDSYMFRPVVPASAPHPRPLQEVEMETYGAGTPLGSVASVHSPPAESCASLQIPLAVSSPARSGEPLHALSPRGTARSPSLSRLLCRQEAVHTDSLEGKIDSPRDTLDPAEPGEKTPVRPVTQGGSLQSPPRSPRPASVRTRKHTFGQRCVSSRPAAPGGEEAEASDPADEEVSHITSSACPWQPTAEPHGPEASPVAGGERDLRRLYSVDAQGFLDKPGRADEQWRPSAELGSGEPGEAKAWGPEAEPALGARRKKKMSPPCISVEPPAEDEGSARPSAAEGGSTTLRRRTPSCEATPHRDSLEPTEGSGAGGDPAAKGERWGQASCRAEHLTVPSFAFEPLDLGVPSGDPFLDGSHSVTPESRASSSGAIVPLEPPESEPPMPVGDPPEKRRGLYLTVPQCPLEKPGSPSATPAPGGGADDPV

percentage of increase in calcium influx through Cav3.2 with respect to control, square action potential (SQAP), first stimulus [1]: 25 % increase
percentage of increase in calcium influx through Cav3.2 with respect to control, SQAP with shorter depolarization (0.5 ms at +50 mV); not a rescue of the ΔKelch effect [2]: 38 % increase
percentage of increase in calcium influx through Cav3.2 with respect to control, SQAP with shorter hyperpolarization (6 ms at -90 mV); not a rescue of the ΔKelch effect [2]: 31 % increase
Substance: ΔKelch, truncated KLHL1 mutant lacking the Kelch domains (domain or fragment)
